In patent US20220098304A1 (JIANGSU HENGRUI MEDICINE, published 2022):
Changes are numbered by the printed parent chain. Names may count otherwise.

B1: murine antibody M23 (antibody, V domains shown)
VH: QVQLQQSGAELVRPGASVTLSCKASGYTFTDYEMHWVKQTPIHGLEWIGLIDPETGGTVYNQKFKDKTILTADKSSSTAYMEFRSLTSEDSAVYHCTRERFSYYGSTSDWYFDVWGTGTTVTVSS
VL: DGLMTQTPLSLPVSLGDHASISCRSSQSLVHSNGNTYLEWYLQKPGQSPKLLIYKVSNRFSGVPDRFSGSGSGTDFTLKISRVEAEDLGIYYCFQGSHVPYTFGGGTKLEIK
B2: Hu23-1.IgG4AA (antibody)
heavy: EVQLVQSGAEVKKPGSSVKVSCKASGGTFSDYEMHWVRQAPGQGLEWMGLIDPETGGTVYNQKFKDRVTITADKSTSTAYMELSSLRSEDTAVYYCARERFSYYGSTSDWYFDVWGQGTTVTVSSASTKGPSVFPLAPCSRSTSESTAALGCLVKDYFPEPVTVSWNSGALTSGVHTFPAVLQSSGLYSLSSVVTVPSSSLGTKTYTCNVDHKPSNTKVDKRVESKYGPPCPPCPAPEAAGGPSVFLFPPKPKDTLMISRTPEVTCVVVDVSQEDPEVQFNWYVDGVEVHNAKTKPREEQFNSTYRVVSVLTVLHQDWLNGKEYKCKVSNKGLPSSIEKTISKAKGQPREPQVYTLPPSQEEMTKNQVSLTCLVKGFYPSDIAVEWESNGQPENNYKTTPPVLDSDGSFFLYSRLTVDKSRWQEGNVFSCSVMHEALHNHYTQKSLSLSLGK
light: DIVMTQTPLSLPVTPGEPASISCRSSQSLVHSNGNTYLEWYLQKPGQSPQLLIYKVSNRFSGVPDRFSGSGSGTDFTLKISRVEAEDVGVYYCFQGSHVPYTFGGGTKVEIKRTVAAPSVFIFPPSDEQLKSGTASVVCLLNNFYPREAKVQWKVDNALQSGNSQESVTEQDSKDSTYSLSSTLTLSKADYEKHKVYACEVTHQGLSSPVTKSFNRGEC
notes: Full-length IgG4-AA (S228P, F234A, L235A), kappa
B3: Hu23-2.IgG4AA (antibody)
heavy: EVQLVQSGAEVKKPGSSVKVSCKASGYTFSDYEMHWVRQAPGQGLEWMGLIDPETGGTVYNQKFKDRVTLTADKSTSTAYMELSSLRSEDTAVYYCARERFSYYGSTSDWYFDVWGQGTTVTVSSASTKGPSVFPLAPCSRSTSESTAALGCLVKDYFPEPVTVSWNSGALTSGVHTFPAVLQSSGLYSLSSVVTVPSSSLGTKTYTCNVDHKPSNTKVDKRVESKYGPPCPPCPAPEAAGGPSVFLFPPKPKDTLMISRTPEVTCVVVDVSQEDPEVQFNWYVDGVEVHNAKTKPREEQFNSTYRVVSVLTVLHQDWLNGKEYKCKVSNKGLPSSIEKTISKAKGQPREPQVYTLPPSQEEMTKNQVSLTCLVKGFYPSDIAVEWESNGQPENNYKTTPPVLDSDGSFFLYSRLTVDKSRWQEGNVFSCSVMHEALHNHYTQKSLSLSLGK
light: B2 light
notes: Full-length IgG4-AA, kappa
B4: Hu23-3.IgG4AA (antibody)
heavy: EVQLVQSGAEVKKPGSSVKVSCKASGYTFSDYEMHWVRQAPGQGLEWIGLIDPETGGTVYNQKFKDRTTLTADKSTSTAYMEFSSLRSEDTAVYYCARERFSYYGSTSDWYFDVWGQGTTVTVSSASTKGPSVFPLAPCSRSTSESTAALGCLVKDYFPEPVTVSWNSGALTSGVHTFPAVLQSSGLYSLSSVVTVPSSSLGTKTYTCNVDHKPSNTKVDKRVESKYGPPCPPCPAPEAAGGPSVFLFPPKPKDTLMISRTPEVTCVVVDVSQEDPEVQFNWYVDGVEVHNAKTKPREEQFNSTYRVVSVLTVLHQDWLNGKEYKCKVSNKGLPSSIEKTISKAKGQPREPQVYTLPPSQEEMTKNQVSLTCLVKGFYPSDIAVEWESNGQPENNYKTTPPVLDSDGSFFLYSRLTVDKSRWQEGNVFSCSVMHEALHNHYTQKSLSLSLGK
light: B2 light
notes: Full-length IgG4-AA, kappa
B5: Hu23-4.IgG4AA (antibody)
heavy: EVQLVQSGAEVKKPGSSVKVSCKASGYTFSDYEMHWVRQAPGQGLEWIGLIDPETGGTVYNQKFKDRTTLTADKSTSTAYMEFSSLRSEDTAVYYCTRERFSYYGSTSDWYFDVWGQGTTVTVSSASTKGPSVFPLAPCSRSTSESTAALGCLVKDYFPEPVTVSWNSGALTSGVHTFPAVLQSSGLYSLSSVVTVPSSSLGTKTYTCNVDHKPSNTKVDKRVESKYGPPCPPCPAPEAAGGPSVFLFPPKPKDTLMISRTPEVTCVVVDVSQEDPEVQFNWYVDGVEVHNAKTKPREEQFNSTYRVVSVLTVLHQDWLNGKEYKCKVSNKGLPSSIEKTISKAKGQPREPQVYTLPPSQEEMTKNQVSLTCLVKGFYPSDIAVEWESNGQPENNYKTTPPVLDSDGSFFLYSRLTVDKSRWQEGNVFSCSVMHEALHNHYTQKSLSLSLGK
light: B2 light
notes: Full-length IgG4-AA, kappa
B6: Hu23-5.IgG4AA (antibody)
heavy: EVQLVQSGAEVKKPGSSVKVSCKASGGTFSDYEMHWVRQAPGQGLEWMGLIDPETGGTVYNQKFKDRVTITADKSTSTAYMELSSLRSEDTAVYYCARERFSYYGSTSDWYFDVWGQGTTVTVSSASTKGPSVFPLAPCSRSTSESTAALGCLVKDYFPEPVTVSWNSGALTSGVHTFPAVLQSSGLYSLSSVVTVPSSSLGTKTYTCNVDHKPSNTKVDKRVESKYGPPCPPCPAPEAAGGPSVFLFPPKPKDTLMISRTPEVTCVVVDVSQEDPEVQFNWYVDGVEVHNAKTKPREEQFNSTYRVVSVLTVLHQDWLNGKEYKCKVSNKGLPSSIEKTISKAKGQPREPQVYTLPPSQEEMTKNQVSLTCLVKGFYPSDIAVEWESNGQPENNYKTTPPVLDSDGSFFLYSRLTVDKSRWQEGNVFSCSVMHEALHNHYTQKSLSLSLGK
light: B2 light with I2G
notes: Full-length IgG4-AA, kappa
B7: Hu23-6.IgG4AA (antibody)
heavy: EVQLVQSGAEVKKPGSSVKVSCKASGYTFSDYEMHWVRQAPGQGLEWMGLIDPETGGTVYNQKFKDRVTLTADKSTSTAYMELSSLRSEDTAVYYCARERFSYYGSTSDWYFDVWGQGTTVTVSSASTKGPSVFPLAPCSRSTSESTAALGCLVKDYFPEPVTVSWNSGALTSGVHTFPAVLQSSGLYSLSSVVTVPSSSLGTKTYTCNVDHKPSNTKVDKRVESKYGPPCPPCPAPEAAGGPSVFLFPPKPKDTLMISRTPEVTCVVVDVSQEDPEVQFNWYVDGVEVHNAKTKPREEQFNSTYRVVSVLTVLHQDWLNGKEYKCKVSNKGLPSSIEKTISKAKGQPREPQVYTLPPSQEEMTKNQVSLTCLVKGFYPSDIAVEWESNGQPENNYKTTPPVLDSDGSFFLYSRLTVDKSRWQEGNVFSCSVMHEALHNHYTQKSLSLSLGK
light: B2 light with I2G
notes: Full-length IgG4-AA, kappa
B8: Hu23-7.IgG4AA (antibody)
heavy: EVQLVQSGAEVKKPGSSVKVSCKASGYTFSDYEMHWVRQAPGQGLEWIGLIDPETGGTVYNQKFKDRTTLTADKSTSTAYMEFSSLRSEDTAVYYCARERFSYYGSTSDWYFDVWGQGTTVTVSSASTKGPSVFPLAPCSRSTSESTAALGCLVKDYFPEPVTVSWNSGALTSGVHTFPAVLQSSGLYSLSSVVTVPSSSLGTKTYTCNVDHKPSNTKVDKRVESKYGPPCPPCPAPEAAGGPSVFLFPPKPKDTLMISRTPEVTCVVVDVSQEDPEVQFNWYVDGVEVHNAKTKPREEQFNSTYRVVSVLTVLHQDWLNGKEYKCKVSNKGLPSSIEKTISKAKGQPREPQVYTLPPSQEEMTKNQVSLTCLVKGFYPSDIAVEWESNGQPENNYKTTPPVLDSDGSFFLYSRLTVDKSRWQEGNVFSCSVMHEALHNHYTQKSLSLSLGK
light: B2 light with I2G
notes: Full-length IgG4-AA, kappa
B9: Hu23-8.IgG4AA (antibody)
heavy: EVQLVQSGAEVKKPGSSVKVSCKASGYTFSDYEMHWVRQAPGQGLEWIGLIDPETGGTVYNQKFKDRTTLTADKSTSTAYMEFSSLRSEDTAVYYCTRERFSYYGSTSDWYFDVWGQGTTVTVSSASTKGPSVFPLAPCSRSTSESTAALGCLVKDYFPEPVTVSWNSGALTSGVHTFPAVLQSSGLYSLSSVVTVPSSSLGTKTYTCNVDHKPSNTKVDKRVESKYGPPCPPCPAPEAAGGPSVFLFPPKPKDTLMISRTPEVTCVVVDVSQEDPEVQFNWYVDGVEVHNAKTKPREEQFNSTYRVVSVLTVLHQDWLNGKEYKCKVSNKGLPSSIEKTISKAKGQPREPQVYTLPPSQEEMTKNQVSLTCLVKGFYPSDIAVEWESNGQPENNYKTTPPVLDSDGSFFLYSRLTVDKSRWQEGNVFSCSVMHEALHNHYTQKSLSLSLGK
light: B2 light with I2G
notes: Full-length IgG4-AA, kappa
B10: Hu23-9.IgG4AA (antibody, V domains shown)
VH: EVQLVQSGAEVKKPGSSVKVSCKASGGTFSDYEMHWVRQAPGQGLEWMGLIDPETGGTVYNQKFKDRVTITADKSTSTAYMELSSLRSEDTAVYYCARERFSYYGSTSDWYFDVWGQGTTVTVSS
VL: DIVMTQTPLSLPVTPGEPASISCRSSQSLVHSQGNTYLEWYLQKPGQSPQLLIYKVSNRFSGVPDRFSGSGSGTDFTLKISRVEAEDVGVYYCFQGSHVPYTFGGGTKVEIKR
notes: Full-length IgG4-AA, kappa; also called Hu23LCDR1 (N28Q)
B11: Hu23-10.IgG4AA (antibody, V domains shown)
VH: B10 VH
VL: B10 VL with Q33L
notes: Full-length IgG4-AA, kappa; also called Hu23LCDR1 (N28L)
B12: Hu23-12.IgG4AA (antibody, V domains shown)
VH: B10 VH
VL: B10 VL with Q33D
notes: Full-length IgG4-AA, kappa; also called Hu23LCDR1 (N28D)
B13: Hu23-13.IgG4AA (antibody, V domains shown)
VH: B10 VH
VL: B10 VL with Q33N, G34A
notes: Full-length IgG4-AA, kappa; also called Hu23LCDR1 (G29A)
B14: Hu23-14.IgG4AA (antibody, V domains shown)
VH: B10 VH
VL: B10 VL with Q33N, G34V
notes: Full-length IgG4-AA, kappa; also called Hu23LCDR1 (G29V)
B15: Hu32a-29.IgG4AA (antibody, V domains shown)
VH: EVQLVQSGAEVKKPGSSVKVSCKASGFTFSDYEIHWVRQAPGQGLEWMGLFDPETGGIVYNQKFKGRVTLTADKSTSTAYMELSSLRSEDTAVYYCTREGYNRDWYFDVWGQGTTVTVSS
VL: B10 VL with Q33T
notes: Full-length IgG4-AA, kappa
B16: Hu32a-15.IgG4AA (antibody, V domains shown)
VH: B15 VH with F27G, L70I, T97A
VL: B10 VL with Q33T
notes: Full-length IgG4-AA, kappa
B17: Hu32a-43.IgG4AA (antibody, V domains shown)
VH: B15 VH with G26D
VL: B10 VL with Q33T
notes: Full-length IgG4-AA, kappa
B18: Hu32a-57.IgG4AA (antibody, V domains shown)
VH: B15 VH with M48I, V68A, L83F
VL: B10 VL with Q33T
notes: Full-length IgG4-AA, kappa
B19: Hu32a-71.IgG4AA (antibody, V domains shown)
VH: B15 VH with G26D, S30T, M48I, V68A, L83F
VL: B10 VL with Q33T
notes: Full-length IgG4-AA, kappa
B20: murine antibody M32 (antibody, V domains shown)
VH: QVQLQQSGAELVRPGASVTLSCKASDFTFTDYEIHWVKQTPVHGLEWIGLFDPETGGIVYNQKFKGKAILTADKSSNTAYMEFRSLTSEDSAVYYCTREGYNRDWYFDVWGTGTTVTVSS
VL: B1 VL with G2V, H18Q, L29I, T102A
B21: murine antibody M33 (antibody, V domains shown)
VH: KVMLVESGGGLVKPGGSLKLSCAASGFTFSSYAMSWVRQTPEKRLEWVATISGGGVDTYYQDNVQGRFTISRDNAKNTLYLQMSSLRSEDTALYYCASPYGHGYFDVWGTGTTVTVSS
VL: DIQMTQTTSSLSASLGDRVTISCRASQDINNFLNWYQQKPDGTVKLLIYYTSSLHSGVPSRFSGSGSGTDYSLTISNLEQEDIATYFCQQGNTLPWTFGGGTKLEIK
B22: Hu33-1.IgG4AA (antibody, V domains shown)
VH: EVQLVESGGGLVQPGGSLRLSCAASGFTFSSYAMSWVRQAPGKGLEWVATISGGGVDTYYQDNVQGRFTISRDNAKNSLYLQMNSLRAEDTAVYYCARPYGHGYFDVWGQGTTVTVSS
VL: DIQMTQSPSSLSASVGDRVTITCRASQDINNFLNWYQQKPGKAPKLLIYYTSSLHSGVPSRFSGSGSGTDFTLTISSLQPEDFATYYCQQGNTLPWTFGGGTKVEIKR
notes: Full-length IgG4-AA, kappa
B23: Hu33-4.IgG4AA (antibody, V domains shown)
VH: B22 VH
VL: B22 VL with F71Y
notes: Full-length IgG4-AA, kappa
B24: Hu33-7.IgG4AA (antibody, V domains shown)
VH: B22 VH
VL: B22 VL with K42G, P44V, F71Y
notes: Full-length IgG4-AA, kappa
B25: Hu33-8.IgG4AA (antibody)
heavy: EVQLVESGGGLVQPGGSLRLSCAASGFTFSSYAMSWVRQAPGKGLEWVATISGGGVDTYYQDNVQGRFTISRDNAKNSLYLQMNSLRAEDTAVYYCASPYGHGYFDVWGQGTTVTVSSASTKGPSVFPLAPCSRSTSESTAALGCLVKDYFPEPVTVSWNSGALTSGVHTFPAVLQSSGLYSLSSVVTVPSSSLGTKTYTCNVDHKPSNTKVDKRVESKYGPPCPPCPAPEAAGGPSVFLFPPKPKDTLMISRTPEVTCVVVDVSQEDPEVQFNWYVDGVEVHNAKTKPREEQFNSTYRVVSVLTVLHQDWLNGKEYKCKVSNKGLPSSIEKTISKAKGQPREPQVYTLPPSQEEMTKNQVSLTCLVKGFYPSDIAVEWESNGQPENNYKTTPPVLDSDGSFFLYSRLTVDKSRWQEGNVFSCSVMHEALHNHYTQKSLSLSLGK
light: DIQMTQSPSSLSASVGDRVTITCRASQDINNFLNWYQQKPGGAVKLLIYYTSSLHSGVPSRFSGSGSGTDYTLTISSLQPEDFATYYCQQGNTLPWTFGGGTKVEIKRTVAAPSVFIFPPSDEQLKSGTASVVCLLNNFYPREAKVQWKVDNALQSGNSQESVTEQDSKDSTYSLSSTLTLSKADYEKHKVYACEVTHQGLSSPVTKSFNRGEC
notes: Full-length IgG4-AA, kappa
B26: Hu33-9.IgG4AA (antibody)
heavy: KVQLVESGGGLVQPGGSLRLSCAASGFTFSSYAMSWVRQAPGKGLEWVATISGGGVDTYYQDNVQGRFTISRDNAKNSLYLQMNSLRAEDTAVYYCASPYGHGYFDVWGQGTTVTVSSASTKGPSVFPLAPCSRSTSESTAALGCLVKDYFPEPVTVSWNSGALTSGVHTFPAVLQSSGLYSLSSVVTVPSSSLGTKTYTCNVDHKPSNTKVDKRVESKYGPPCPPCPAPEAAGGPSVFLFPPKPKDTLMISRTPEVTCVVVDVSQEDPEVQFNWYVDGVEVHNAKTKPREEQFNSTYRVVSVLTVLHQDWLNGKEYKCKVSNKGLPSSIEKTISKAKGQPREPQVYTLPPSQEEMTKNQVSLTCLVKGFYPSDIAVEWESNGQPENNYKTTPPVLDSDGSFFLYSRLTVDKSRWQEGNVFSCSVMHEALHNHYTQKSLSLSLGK
light: B25 light
notes: Full-length IgG4-AA, kappa

What follows are binders tested against T1, Human PD-1-His protein (Cat. #10377H08H, Sino Biological) (human, UniProt Q15116 25-167) (assay: SPR (Biacore), antibody captured on Protein A chip, PD-1 in flow).
T1 construct: Bought protein; also called hPD-1-His; hu PD-1-his; not shown: His tag of the bought protein
T1 sequence (Q15116 25-167 limits assumed): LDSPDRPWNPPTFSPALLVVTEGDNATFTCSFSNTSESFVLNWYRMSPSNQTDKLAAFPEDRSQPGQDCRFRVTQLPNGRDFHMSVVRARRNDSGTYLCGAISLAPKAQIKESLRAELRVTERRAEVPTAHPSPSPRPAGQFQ
Excerpt: IgG was affinity captured by using a Protein A biosensor chip (Cat. #29127556, GE). Human PD-1 antigen (Cat. #10377H08H, Sino Biological) and Cyno PD-1 antigen (purchased from Sino Biological) flowed across the surface of the chip, and the binding and dissociation curves were obtained by real time detection of PD-1 antibody and antigen PD-1 reaction signals by a Biacore T200 instrument. After the dissociation of each experimental cycle was completed, the biosensor chip was washed and regenerated with 10 mM Glycine-HCl pH 1.5 buffer. The experimental buffer system was 1×HBS-EP buffer solution (Cat #BR-1001-88, GE). After the experiment, GE Biacore T200 Evaluation version 3.0 software was used to fit the data with a (1:1) Langmuir model, and the affinity value was obtained.
A Kd of 2.89 nM, a koff of 0.000132 s⁻¹ and a kon of 45700 M⁻¹ s⁻¹ were found for B1 in this work.
A Kd of 3.2 nM, a koff of 0.00011 s⁻¹ and a kon of 34300 M⁻¹ s⁻¹ were found for B2 in this work.
A Kd of 5.86 nM, a koff of 0.000161 s⁻¹ and a kon of 27400 M⁻¹ s⁻¹ were found for B3 in this work.
A Kd of 5.46 nM, a koff of 0.00016 s⁻¹ and a kon of 29300 M⁻¹ s⁻¹ were found for B4 in this work.
A Kd of 3.39 nM, a koff of 0.000144 s⁻¹ and a kon of 42400 M⁻¹ s⁻¹ were found for B5 in this work.
A Kd of 3.82 nM, a koff of 0.000114 s⁻¹ and a kon of 29900 M⁻¹ s⁻¹ were found for B6 in this work.
A Kd of 5.57 nM, a koff of 0.000155 s⁻¹ and a kon of 27900 M⁻¹ s⁻¹ were found for B7 in this work.
A Kd of 5.97 nM, a koff of 0.000166 s⁻¹ and a kon of 27700 M⁻¹ s⁻¹ were found for B8 in this work.
A Kd of 3.56 nM, a koff of 0.000147 s⁻¹ and a kon of 41100 M⁻¹ s⁻¹ were found for B9 in this work.
A Kd of 2.15 nM, a koff of 0.000132 s⁻¹ and a kon of 61600 M⁻¹ s⁻¹ were found for B10 in this work.
A Kd of 2.77 nM, a koff of 0.000153 s⁻¹ and a kon of 55100 M⁻¹ s⁻¹ were found for B11 in this work.
A Kd of 2.02 nM, a koff of 0.00011 s⁻¹ and a kon of 54500 M⁻¹ s⁻¹ were found for B12 in this work.
A Kd of 2.88 nM, a koff of 0.000122 s⁻¹ and a kon of 42400 M⁻¹ s⁻¹ were found for B13 in this work.
A Kd of 2.22 nM, a koff of 0.000161 s⁻¹ and a kon of 72300 M⁻¹ s⁻¹ were found for B14 in this work.
A Kd of 7.86 nM, a koff of 0.00062 s⁻¹ and a kon of 78900 M⁻¹ s⁻¹ were found for B15 in this work.
A Kd of 51.4 nM, a koff of 0.00252 s⁻¹ and a kon of 48900 M⁻¹ s⁻¹ were found for B16 in this work.
A Kd of 8.16 nM, a koff of 0.000685 s⁻¹ and a kon of 83900 M⁻¹ s⁻¹ were found for B17 in this work.
A Kd of 7.85 nM, a koff of 0.000624 s⁻¹ and a kon of 79400 M⁻¹ s⁻¹ were found for B18 in this work.
A Kd of 4.61 nM, a koff of 0.000396 s⁻¹ and a kon of 86000 M⁻¹ s⁻¹ were found for B19 in this work.
A Kd of 5.3 nM, a koff of 0.000415 s⁻¹ and a kon of 78300 M⁻¹ s⁻¹ were found for B20 in this work.
A Kd of 0.737 nM, a koff of 0.000227 s⁻¹ and a kon of 308000 M⁻¹ s⁻¹ were found for B21 in this work.
A Kd of 19.3 nM, a koff of 0.00128 s⁻¹ and a kon of 66100 M⁻¹ s⁻¹ were found for B22 in this work.
A Kd of 31.4 nM, a koff of 0.00255 s⁻¹ and a kon of 81100 M⁻¹ s⁻¹ were found for B23 in this work.
A Kd of 33.8 nM, a koff of 0.0026 s⁻¹ and a kon of 76900 M⁻¹ s⁻¹ were found for B24 in this work.
A Kd of 1.06 nM, a koff of 0.000162 s⁻¹ and a kon of 153000 M⁻¹ s⁻¹ were found for B25 in this work.
A Kd of 1.09 nM, a koff of 0.000153 s⁻¹ and a kon of 140000 M⁻¹ s⁻¹ were found for B26 in this work.
